In paper PMC9803922, “Seawater fish use an electrogenic boric acid transporter, Slc4a11A, for boric acid excretion by the kidney” (The Journal of Biological Chemistry, 2022):

Substrate: OB(O)O
Assay: two-electrode voltage clamp, boric acid-elicited currents in Xenopus oocytes
Type: cell-based, Takifugu obscurus
Conditions: total boric acid (B(OH)3 + B(OH)4-), Vh +60 mV, pH 7.5, 18 °C, Na+-independent electrogenic transport

B1: Slc4a11A (mfSlc4a11A) (Takifugu obscurus) (protein)
chain: MDMLSQEMELKDEKKEDYGEDSDAIHIYDTEAYISVSDPDRPGFGLLNTTRKYVKPMNFQEEVRAHRDLDNFLAQASILLDERATTLDEVLRRMLAHLLEEGRESCDPDEVMSSVFTDAGGKDFDVHLLSETIQGVTSTSTGIHYQQSWLCILTNLRSLQRRHVCIARLDRPQNWGVNCCEARYVIFILAPPRTKSTKTAIELGRTFATMFSDISFRQRLLETKTQEEFKQELLSYRQKLSTVQEKPVEEEEEDSDPRRGKALQCKDFLKAGKGVYRDLRRRLPLYPSDFTDGLTGKDRCLLKYTTTAIFLYIAILLPAIAFGSLNDESTRGEIDVQKTIVGQSIGGVIYALFAGSPLVIPLTTAPLAIFISVIRGICDDYDLDFDSFYACIGLWNSLFLILGGLFNVSLLMKLFKRSTEEVIALFISIAFVGDAVKGTVKIFQHFYRGPTLTTTNSTLVFQQLEGILNQTNNQTGNGLGEHGQADGHTLVFLPQSLVECTREMPILCLLLMLGTLWLGYTLYLIRRSPYLNDKIREVVSDCALPISVVICSFIGSYLFLNIKLPVFSVHDGPIFNYPPFDKLSGMSALSAVGLGFLLALLIFIDQNIVISLTHVPEHKLLKGTAFHWDLMLTGFINILMSCLGLPWMHAAFPHSSLHARQLAKVEQHVENGHLYTTIVSVKETRLTALAANILIGLSAFMLPIPLQWIPKPVLYGLFLYIAATSLDGNQMVDRMCLLLKEQTSYPPTHYVRRVPQRKVHFFTGVQMIQLIILCAFGMYPLPYMKMVFPLLMILLVPIRTSLLPKMIDAKYLDIMDAQHM
notes: full-length cDNA in pGEMHE, untagged, expressed in Xenopus laevis oocytes; 820 residues; C-terminal region antigen peptide PKMIDAKYLDIMDAQHM
  Km: 6.5 ± 0.6 mM
